What was measured:
[1] = system: DAP12 mutant P17
[2] = system: DAP12 mutant P19
[3] = system: DAP12 mutant P23
Sequence of DAP12 mutant P23 (chain, as listed by the source mutant): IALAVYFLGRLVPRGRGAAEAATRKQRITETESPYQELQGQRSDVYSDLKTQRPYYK

Sequence of DAP12 mutant P17 (chain, as listed by the source mutant): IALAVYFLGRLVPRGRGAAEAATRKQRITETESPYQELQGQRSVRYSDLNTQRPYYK
Sequence of DAP12 mutant P19 (chain, as listed by the source mutant): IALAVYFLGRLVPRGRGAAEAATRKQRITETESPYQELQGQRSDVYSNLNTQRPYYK

## Syk
[1]
  tyrosine phosphorylation of Syk (IP of Syk, western blot with pan-phospho-tyrosine antibody 4G10): P17, P19 and P23 were able to induce tyrosine phosphorylation of Syk
[2]
  tyrosine phosphorylation of Syk (IP of Syk, western blot with pan-phospho-tyrosine antibody 4G10): P17, P19 and P23 were able to induce tyrosine phosphorylation of Syk
[3]
  tyrosine phosphorylation of Syk (IP of Syk, western blot with pan-phospho-tyrosine antibody 4G10): P17, P19 and P23 were able to induce tyrosine phosphorylation of Syk

Reference: patent publication US20250304636
